Experimental data: patent US20250230242A1, “PHARMACEUTICAL COMPOSITION OF ANTI-TIM-3 ANTIBODY AND HYPOMETHYLATING AGENT” (NANJING SHUNXIN PHARMACEUTICALS CO., LTD. OF CHIATAI …, priority 2022, published 2025)

Columns and labels:
[1] = biological target: T1, CHO-S-HuTIM-3 cells highly expressing human TIM-3 (Homo sapiens, UniProt Q8TDQ0); experiment: Binding to cells highly expressing human TIM-3 (cell ELISA)
T1 construct: expressed in transfected cells; host or cells: CHO-S
Experimental: The human TIM-3 gene was transfected into CHO-S cells, and the cells were incubated in an incubator at 37° C. with 5% CO2 using a Dynamis AGT medium (containing 4 mM glutamic acid and 3 μg/mL Puromycin) to give CHO-S-HuTIM-3 cells. […] After the reaction was stopped with H2SO4, the OD value was measured at a wavelength of 450 nm using a full-function microplate reader Synergy H4. The binding EC50 was calculated based on the OD value.

CHO-S-HuTIM-3 cells [2] = experiment: ADCC against CHO-S-HuTIM-3 cells; assay type: cell-based; details: 10 or 100 μg/mL, effector cells PBMC, FIG. 3
Experimental: (§1) After the reaction was completed, the mixture was centrifuged, and the supernatant was collected and measured for fluorescence values at 490 nm as excitation wavelength and 515 nm as emission wavelength. The cells were lysed directly with 0.1% Triton X-100 and centrifuged, and then the supernatant was collected to determine the total fluorescence value. The lysis rate (%) was calculated based on the fluorescence value.

CHO-S-HuTIM-3 cells [3] = experiment: CDC against CHO-S-HuTIM-3 cells; assay type: cell-based; details: 10 or 100 μg/mL, 10% human serum, FIG. 4
Experimental: (§2) CHO-S-HuTIM-3 cells and Daudi cells (Shanghai Cell Bank of Chinese Academy of Sciences) were inoculated into a 96-well plate. […] Finally, CCK-8 reagent (Dojindo Laboratories) was added and reacted for 4 h. The OD value was measured at a wavelength of 450 nm using a microplate reader, and the lysis rate (%) was calculated.

Daudi cells [4] = experiment: ADCC against Daudi cells; assay type: cell-based; details: 1 or 10 μg/mL, effector cells PBMC, FIG. 3
Experimental: as §1

Daudi cells [5] = experiment: CDC against Daudi cells; assay type: cell-based; details: 10 or 100 μg/mL, 10% human serum, FIG. 4
Experimental: as §2

[6] = biological target: T2, human TIM-3 on CHO-S-HuTIM-3 cells (human, UniProt Q8TDQ0 22-301); experiment: cell ELISA on CHO-S-HuTIM-3 cells, anti-human kappa-HRP
T2 construct: whole, on cells; Human TIM-3 gene transfected into CHO-S cells; also called CHO-S-HuTIM-3 cells highly expressing human TIM-3

[7] = biological target: T3, human TIM-3 recombinant protein (R&D) (human, UniProt Q8TDQ0 22-200); experiment: ELISA, human TIM-3 coated, h50B5 titrated, anti-human kappa-HRP
T3 construct: Bought recombinant protein; also called human TIM-3 protein

[8] = biological target: T4, cynomolgus monkey TIM-3 recombinant protein (Acro) (cynomolgus monkey, UniProt A0A2K5U3G7 22-193); experiment: ELISA, h50B5 coated at 2 µg/mL, cynomolgus TIM-3 titrated, Anti-His HRP
T4 construct: Bought recombinant protein; His tag implied only by the Anti-His HRP detection; also called cynomolgus monkey TIM-3 protein
T4 sequence: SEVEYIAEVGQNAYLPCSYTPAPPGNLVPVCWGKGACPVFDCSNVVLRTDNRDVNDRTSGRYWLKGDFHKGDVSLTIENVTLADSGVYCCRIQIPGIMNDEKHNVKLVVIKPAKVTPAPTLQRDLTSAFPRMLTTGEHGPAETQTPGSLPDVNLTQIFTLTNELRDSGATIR

For “TSR022: anti-TIM-3 antibody used as benchmark, heavy chain SEQ ID NO: 22, light chain SEQ ID NO: 23 [reference compound]”, the “EC50 of binding to CHO-S-HuTIM-3 cells” value ([1]; FIG. 1) was 6.8155 ± 0.1662 mg/L, the “maximum binding Emax (OD450), CHO-S-HuTIM-3 cells” value ([1]; FIG. 1, OD450) was 0.26±0.05 and the “ADCC against CHO-S-HuTIM-3 cells” value (CHO-S-HuTIM-3 cells [2]) was “did not show significant ADCC”. For the same molecule, the “CDC against CHO-S-HuTIM-3 cells” value (CHO-S-HuTIM-3 cells [3]) was “did not show significant CDC”.

With “Rituxan®: positive control for ADCC and CDC with Daudi cells as target cells” the “ADCC against Daudi cells” value (Daudi cells [4]) was “exhibited significant ADCC” and the “CDC against Daudi cells” value (Daudi cells [5]) was “exhibited significant CDC”.

B1: humanized anti-TIM-3 antibody h50B5 (antibody, human IgG4 S228P, kappa, V domains shown)
VH: QVQLVQSGAEVKKPGASVKVSCKASGYSFTGYTINWVRQAPGQGLEWMGLFNPYNGGTTYAQKFQGRVTMTVDKSTSTVYMELSSLRSEDTAVYYCARRYYGYDAMDYWGQGTLVTVSS
VL: DIQMTQSPSSLSASVGDRVTITCKSSQSVLYSSNQKNHLAWYQQKPGKAPKLLIYWASTRESGVPSRFSGSGSGTDFTLTISSLQPEDFATYYCHQYLSSYTFGQGTKLEIKR
notes: Humanized from mouse mAb 50B5 by CDR grafting; human IgG4 heavy chain constant region and human light chain constant region
Molecule B1 has an EC50 [6] of 1.46 mg/L, an EC50 [7] of 0.291 mg/L and an EC50 [8] of 1.64 mg/L.

B2: anti-TIM-3 antibody TSR022 (antibody, human IgG4 S228P, kappa, V domains shown)
VH: EVQLLESGGGLVQPGGSLRLSCAAASGFTFSSYDMSWVRQAPGKGLDWVSTISGGGTYTYYQDSVKGRFTISRDNSKNTLYLQMNSLRAEDTAVYYCASMDYWGQGTTVTVSS
VL: DIQMTQSPSSLSASVGDRVTITCRASQSIRRYLNWYHQKPGKAPKLLIYGASTLQSGVPSRFSGSGSGTDFTLTISSLQPEDFAVYYCQQSHSAPLTFGGGTKVEIKR
notes: Benchmark antibody, prepared in the same way as h50B5
B2 gave an EC50 [6] of 6.82 mg/L.
